# Source: patent publication US20090275124A1 (DYAX, published 2009)
# Target: T1, DX-2400
# T1 construct: Only the variable domains are printed (joined from rows r3-r12 and r17-r26); It was biotinylated for phage selection; also called DX-2400 IgG; fully human monoclonal anti-MMP-14 antibody
# Assay: phage ELISA
# From the text: Three rounds of selection were done against biotinylated DX-2400 after depleting the library using biotinylated-DX-2300 IgG (control antibody that binds unrelated target) and biotinylated matched Vk Fab (371L-X002-A03) (isotype matched control) immobilized on streptavidin magnetic beads. […] Forty-nine unique phage clones which had distinct heavy chains were secondarily screened by phage ELISA and ranked for specific binding to DX-2400. Later 45 soluble Fabs were expressed, purified and screened for non-specific binding to 5% human, cyno, rat, and mouse serum antibodies by using Fab as capture reagent and detecting with alkaline phosphatase-conjugated mouse anti-human Fc gamma-specific antibody.
row,Binder,binding result
1,"539C-M0016-E11 (Fab, V domains shown, It was tested as Fab on phage, as soluble Fab, and biotinylated in the ECL assay) VH: EVQLLESGGGLVQPGGSLRLSCAASGFTFSFYVMDWVRQAPGKGLEWVSGIGPSGGSTDYADSVKGRFTISRDNSKNTLYLQMNSLRAEDTAVYYCTRIRYDSSGYPTDAFDIWGQGTMVTVSS VL: DIQMTQSPATLSLSPGERATLSCRASQSVSSYLAWYQQKPGQAPRLLIYDASNRATGIPARFSGSGSGTDFTLTISSLEPEDFAVYYCQQRSNWPLTFGGGTKVEIKR",binds

# Target: T1, DX-2400
# Assay: phage display selection and ELISA screening
# From the text: Anti-idiotypic Fabs for DX-2400 were generated by phage selection and screenings using DX-2400 as a target. […] Forty nine were distinct as determined by DNA sequencing. These 49 unique clones were screened as phages and sFabs (soluble Fabs) in 5% pooled normal serum matrices (human, mouse, rat and cynomolgus monkey). Top 10 unique clones were ranked according to the following criteria: strong binding to DX-2400, weak binding to DX-2300, low-non specific binding to streptavidin and Fab control.
row,Binder,binding result
1,"539C-R0010-C05 (Fab, V domains shown, A Fab from the phage display library with a kappa light chain; Only the starts of the constant regions are printed) VH: EVQLLESGGGLVQPGGSLRLSCAASGFTFSGYGMGWVRQAPGKGLEWVSYIVPSGGATDYADSVKGRFTISRDNSKNTLYLQMNSLRAEDTAVYYCARAYYYDSSGFDIWGQGTMVTVSS VL: DIQMTQSPSSLSASVGDRVTITCLPSQDISVYLNWYQQKPGEAPKLLISATSDLQSGVPSRFGGSGYGTDFSLTITSLQREDFATYYCQQSYSLPFTFGGGTRVEIK",binds
2,"539C-M0021-E01 (Fab, V domains shown, It was tested as Fab on phage and as soluble Fab) VH: EVQLLESGGGLVQPGGSLRLSCAASGFTFSVYPMIWVRQAPGKGLEWVSYISSSGGQTWYADSVKGRFTISRDNSKNTLYLQMNSLRAEDTATYYCARGDDYDSSGPDYWGQGTLVTVSS VL: DIQMTQSPSSLSASEGDRITLTCRASQSISIYLNWYQQKPGRAPKLLMYAATTLQSGVPSRFSGSGSGTDFTLTISGLRPEDFATYYCQQSYDIPLTFGGGTKVEIKR",binds
3,"539C-R0010-F05 (Fab, V domains shown, A Fab from the phage display library with a lambda light chain; Only the starts of the constant regions are printed) VH: EVQLLESGGGLVQPGGSLRLSCAASGFTFSWYAMVWVRQAPGKGLEWVSGISPSGGLTSYADSVKGRFTISRDNSKNTLYLQMNSLRAEDTAVYYCARKQMSPDYYYGMDVWGQGTTVTVSS VL: QSVLTQPPSVSVAPGQTATISCEGDNIGSKSVHWYQQRPGQAPVLVVYDDYDRPSGIPERFSGFNSGNTATLTIYRVEAGDEADFYCQVRDSRTEERVFGGGTKLTVL",binds
4,"539C-R0010-F06 (Fab, V domains shown, A Fab from the phage display library with a kappa light chain; Only the starts of the constant regions are printed) VH: EVQLLESGGGLVQPGGSLRLSCAASGFTFSDYHMSWVRQAPGKGLEWVSGISSSGGETFYADSVKGRFTISRDNSKNTLYLQMNSLRAEDTAVYYCASGSHRDGYNLGYFDYWGQGTLVTVSS VL: DIQMTQSPASLSASVGDRVTITCQASRDIGEYLNWYQQKAGKPPKLLISDATTLETGVPSRFSGTGSGTEFLFTISSVEPEDFATYYCQQYDDLTWISFGPGTRLDVK",binds
5,"539C-R0004-G04 (Fab, V domains shown, A Fab from the phage display library with a lambda light chain; Only the starts of the constant regions are printed; The VL is built from the FR/CDR columns because the joined LV-AA print (r109-r111) reads ADYEC where LV-FR3 reads ADYFC) VH: EVQLLESGGGLVQPGGSLRLSCAASGFTFSDYDMHWVRQAPGKGLEWVSGISPSGGWTWYADSVKGRFTISRDNSKNTLYLQMNSLRAEDTAVYYCARDWYSSGLDYWGQGTLVTVSS VL: QYELTQPPSVSVAPGQTARIICGGNDIGSKGVHWYHQKAGQAPVLLVYDNTDRPSGIPERFSGSNSGNTAALTITRVEAGDEADYFCQVWDSTGEHAVFGGGTKLTVL",binds
6,"539C-R0010-D06 (Fab, V domains shown, A Fab from the phage display library with a lambda light chain; Only the starts of the constant regions are printed (GQPKAAP)) VH: EVQLLESGGGLVQPGGSLRLSCAASGFTFSDYSMYWVRQAPGKGLEWVSYISSSGGNTEYADSVKGRFTISRDNSKNTLYLQMNSLRAEDTAMYYCATTPSIWLGDLLENGPYWGQGTLVTVSS VL: QYELTQPHSVSESPGKTVTISCTRSNGTIDNSFVQWYQQRPGSAPTTVIYEDTQRPSGVPDRFSGSIDSSSNSASLTISGLKTEDEADYYCQSYDSTNRGVFGGGTKLTVL",binds
7,"539C-R0010-E06 (Fab, V domains shown, A Fab from the phage display library with a lambda light chain; Only the starts of the constant regions are printed) VH: EVQLLESGGGLVQPGGSLRLSCAASGFTFSDYWMFWVRQAPGKGLEWVSGIGPSGGIISYADSVKGRFTISRDNSKNTLYLQMNSLRAEDTAVYYCAKYGDYVSGFDYWGQGTLVTVSS VL: QSALTQPASVSGSPGQSITISCTGTSSDVGGYKLVSWYQQHPGKVPKLIISEVSYRPSGVSNRFSGSKSGNAASLTISGLQAEDEADYYCSSYTSTSTWVFGGGTKLTVL",binds
8,"539C-R0010-C06 (Fab, V domains shown, A Fab from the phage display library with a kappa light chain; Only the starts of the constant regions are printed) VH: EVQLLESGGGLVQPGGSLRLSCAASGFTFSSYNMAWVRQAPGKGLEWVSVIVPSGGLTGYADSVKGRFTISRDNSKNTLYLQMNSLRAEDTAVYYCARERGGFYSSGWYRYWFDPWGQGTLVTVSS VL: DIQMTQSPSSLSASVGDRVTITCRASQNINTFLNWYQQKPGKAPKLLIYGASSLQSGVPSRFSGSGSGTDFTLTISSLQPEDFATYYCQQSSDALVYNFGQGTKLEIK",binds
9,"539C-R0010-B06 (Fab, V domains shown, A Fab from the phage display library with a kappa light chain; Only the starts of the constant regions are printed (RTVAAPS)) VH: EVQLLESGGGLVQPGGSLRLSCAASGFTFSEYQMNWVRQAPGKGLEWVSSIYSSGGGTAYADSVKGRFTISRDNSKNTLYLQMNSLRAEDTAVYYCAKDQGDGYNYGVGLDYWGQGTLVTVSS VL: not shown",binds
